Experimental data published in US20240189392A1 (AMBRX, published 2024).
Several values for one entry are separate records, joined by “and”; a condition that tells them apart may be missing. Equal entries are not always repeated. Positions of bridges follow the written chain, without caps; N, C: chain ends. Non-standard residues stand in square brackets, D forms with d. Chains are numbered I, II in the order given. No end group written: not given here. PEG20K = 20 kDa polyethylene glycol, linked to pAF (e.g. via oxime linkage); Phe(4-Ac) = CC(=O)c1ccc(C[C@H](N)C(=O)O)cc1

T1: human RXFP1 (human, UniProt Q9HBX9 1-757)
T1 sequence (looked up): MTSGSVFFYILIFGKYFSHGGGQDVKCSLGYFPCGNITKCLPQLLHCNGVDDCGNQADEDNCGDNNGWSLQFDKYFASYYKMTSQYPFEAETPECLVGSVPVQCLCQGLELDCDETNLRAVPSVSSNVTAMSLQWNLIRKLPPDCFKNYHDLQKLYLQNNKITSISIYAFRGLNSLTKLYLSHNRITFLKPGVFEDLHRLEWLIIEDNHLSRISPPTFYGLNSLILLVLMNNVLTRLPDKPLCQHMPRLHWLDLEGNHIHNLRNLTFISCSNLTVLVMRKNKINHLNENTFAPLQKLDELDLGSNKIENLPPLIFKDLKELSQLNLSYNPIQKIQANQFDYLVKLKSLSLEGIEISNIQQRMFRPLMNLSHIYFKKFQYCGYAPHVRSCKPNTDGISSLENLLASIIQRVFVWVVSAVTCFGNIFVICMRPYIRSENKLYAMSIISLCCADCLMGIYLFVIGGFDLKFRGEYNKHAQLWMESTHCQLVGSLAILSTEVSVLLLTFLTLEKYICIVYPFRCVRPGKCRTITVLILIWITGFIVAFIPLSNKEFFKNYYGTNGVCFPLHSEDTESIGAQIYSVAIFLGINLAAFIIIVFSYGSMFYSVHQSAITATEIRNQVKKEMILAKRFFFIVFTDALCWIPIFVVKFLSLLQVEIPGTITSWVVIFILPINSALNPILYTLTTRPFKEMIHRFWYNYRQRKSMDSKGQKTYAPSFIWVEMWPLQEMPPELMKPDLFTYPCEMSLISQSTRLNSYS

T2: human RXFP3 (human, UniProt Q9NSD7 1-469)
T2 sequence (looked up): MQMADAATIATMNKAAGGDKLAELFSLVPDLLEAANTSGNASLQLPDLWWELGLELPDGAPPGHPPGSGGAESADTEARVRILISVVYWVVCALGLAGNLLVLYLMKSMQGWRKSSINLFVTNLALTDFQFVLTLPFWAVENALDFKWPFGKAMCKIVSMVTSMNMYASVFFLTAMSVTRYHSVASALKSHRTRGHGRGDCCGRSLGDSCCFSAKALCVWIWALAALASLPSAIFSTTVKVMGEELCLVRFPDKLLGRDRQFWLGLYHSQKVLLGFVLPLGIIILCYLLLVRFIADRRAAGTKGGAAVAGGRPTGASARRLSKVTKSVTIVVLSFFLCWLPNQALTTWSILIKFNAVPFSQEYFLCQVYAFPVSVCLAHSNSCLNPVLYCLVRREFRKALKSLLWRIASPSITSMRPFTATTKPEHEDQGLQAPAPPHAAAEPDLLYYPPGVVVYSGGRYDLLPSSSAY

T3: mouse RXFP1 (mouse, UniProt Q6R6I7 1-758)
T3 sequence (looked up): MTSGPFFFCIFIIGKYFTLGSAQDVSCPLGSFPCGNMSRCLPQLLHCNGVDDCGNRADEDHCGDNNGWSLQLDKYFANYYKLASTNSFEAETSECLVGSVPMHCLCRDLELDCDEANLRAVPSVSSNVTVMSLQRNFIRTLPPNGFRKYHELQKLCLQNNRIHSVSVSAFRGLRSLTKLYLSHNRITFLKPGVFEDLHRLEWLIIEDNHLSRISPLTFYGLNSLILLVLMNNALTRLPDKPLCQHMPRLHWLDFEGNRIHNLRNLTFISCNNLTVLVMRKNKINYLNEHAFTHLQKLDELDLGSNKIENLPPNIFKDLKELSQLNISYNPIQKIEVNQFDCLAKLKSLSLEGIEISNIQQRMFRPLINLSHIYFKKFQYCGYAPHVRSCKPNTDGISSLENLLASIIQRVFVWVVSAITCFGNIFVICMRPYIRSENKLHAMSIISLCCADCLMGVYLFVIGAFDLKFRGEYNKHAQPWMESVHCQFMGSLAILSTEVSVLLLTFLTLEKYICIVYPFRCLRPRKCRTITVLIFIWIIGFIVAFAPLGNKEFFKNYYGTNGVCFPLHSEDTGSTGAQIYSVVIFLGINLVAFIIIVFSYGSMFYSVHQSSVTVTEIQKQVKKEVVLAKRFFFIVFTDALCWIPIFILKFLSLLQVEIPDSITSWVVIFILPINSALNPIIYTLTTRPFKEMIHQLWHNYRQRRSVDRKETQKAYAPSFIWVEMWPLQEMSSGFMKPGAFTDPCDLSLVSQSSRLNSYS

T4: rat RXFP1 (rat, UniProt Q6R6I6 1-758)
T4 sequence (looked up): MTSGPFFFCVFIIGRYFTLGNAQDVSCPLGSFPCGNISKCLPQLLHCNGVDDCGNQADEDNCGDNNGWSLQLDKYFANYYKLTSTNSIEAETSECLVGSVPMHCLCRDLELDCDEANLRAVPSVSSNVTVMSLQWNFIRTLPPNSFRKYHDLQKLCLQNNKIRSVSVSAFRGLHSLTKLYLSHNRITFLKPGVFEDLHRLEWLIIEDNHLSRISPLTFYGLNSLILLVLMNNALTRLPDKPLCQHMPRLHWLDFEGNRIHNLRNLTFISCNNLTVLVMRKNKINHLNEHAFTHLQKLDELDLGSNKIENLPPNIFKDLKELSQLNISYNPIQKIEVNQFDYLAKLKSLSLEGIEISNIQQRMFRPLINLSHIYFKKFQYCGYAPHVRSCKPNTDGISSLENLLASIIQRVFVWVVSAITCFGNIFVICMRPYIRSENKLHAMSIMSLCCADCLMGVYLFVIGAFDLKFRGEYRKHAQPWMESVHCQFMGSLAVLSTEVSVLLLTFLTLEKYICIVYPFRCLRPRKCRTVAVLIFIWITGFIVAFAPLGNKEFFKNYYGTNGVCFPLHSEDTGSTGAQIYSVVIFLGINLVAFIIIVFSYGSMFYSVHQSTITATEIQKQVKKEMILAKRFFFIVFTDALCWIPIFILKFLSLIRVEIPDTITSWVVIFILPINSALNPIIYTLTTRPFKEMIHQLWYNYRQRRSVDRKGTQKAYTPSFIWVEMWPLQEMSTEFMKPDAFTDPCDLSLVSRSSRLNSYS

T5: cynomolgus monkey RXFP1 (cynomolgus monkey, UniProt H9ERA2 1-757 (rhesus entry))
T5 sequence: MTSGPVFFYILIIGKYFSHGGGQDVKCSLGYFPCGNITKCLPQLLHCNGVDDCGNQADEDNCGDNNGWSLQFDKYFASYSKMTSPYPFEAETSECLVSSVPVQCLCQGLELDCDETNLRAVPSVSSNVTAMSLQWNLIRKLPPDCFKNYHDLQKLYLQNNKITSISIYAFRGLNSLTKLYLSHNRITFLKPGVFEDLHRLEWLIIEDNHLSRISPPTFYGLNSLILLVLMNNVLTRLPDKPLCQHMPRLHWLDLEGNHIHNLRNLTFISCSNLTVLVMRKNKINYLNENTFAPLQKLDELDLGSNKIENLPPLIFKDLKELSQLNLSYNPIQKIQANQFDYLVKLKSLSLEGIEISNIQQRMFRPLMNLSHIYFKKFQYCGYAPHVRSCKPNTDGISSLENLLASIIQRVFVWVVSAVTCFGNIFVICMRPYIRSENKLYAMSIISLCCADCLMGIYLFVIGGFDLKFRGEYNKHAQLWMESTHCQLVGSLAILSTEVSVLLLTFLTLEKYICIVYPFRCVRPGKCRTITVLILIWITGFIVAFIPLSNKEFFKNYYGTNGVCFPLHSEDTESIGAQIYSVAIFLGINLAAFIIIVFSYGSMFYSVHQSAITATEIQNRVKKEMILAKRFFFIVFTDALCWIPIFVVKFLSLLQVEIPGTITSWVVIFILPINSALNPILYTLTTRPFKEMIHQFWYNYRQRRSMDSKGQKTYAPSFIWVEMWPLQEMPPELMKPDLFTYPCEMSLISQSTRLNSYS

B1: RLX-A-AA5-20KPEG (ligand)
chain 1: QLYSXLANKCCHVGCTKRSLARFC
chain 2: ASWMEEVIKLCGRELVRAQIAICGMSTWS
modifications: not fully specified; para-acetylphenylalanine (pAF) at position 5 of the A chain, 20K PEGylated
B2: RLX-A-WT (human relaxin 2 with alanine at the first position of the B chain) (ligand)
chain 1: QLYSALANKCCHVGCTKRSLARFC
chain 2: ASWMEEVIKLCGRELVRAQIAICGMSTWS
modifications: not fully specified (bridges); ends and bridges not checked
B3: RLX-A-AV13-20KPEG (ligand)
chain 1: QLYSALANKCCHXGCTKRSLARFC
chain 2: ASWMEEVIKLCGRELVRAQIAICGMSTWS
modifications: not fully specified; para-acetylphenylalanine (pAF) at position 13 of the A chain, 20K PEGylated
B4: RLX-A-BE5-20KPEG (ligand)
chain 1: QLYSALANKCCHVGCTKRSLARFC
chain 2: ASWM[Phe(4-Ac)](PEG20K)EVIKLCGRELVRAQIAICGMSTWS
modifications: not fully specified (bridges); ends and bridges not checked
B5: wild-type relaxin (human relaxin 2) (ligand)
chain 1: QLYSALANKCCHVGCTKRSLARFC
chain 2: DSWMEEVIKLCGRELVRAQIAICGMSTWS
modifications: disulfide I:10-I:15, I:11-II:11, I:24-II:23
B6: RLX-A-BW28-20KPEG (ligand)
chain 1: QLYSALANKCCHVGCTKRSLARFC
chain 2: ASWMEEVIKLCGRELVRAQIAICGMST[Phe(4-Ac)](PEG20K)S
modifications: not fully specified (bridges); ends and bridges not checked
B7: RLX-D-BE5-20KPEG (ligand)
chain 1: QLYSALANKCCHVGCTKRSLARFC
chain 2: DSWM[Phe(4-Ac)](PEG20K)EVIKLCGRELVRAQIAICGMSTWS
modifications: not fully specified (bridges); ends and bridges not checked
B8: RLX-D-AL2-20KPEG (ligand)
chain 1: QXYSALANKCCHVGCTKRSLARFC
chain 2: DSWMEEVIKLCGRELVRAQIAICGMSTWS
modifications: not fully specified; para-acetylphenylalanine (pAF) at position 2 of the A chain, 20K PEGylated
B9: RLX-A-BV7-20KPEG (ligand)
chain 1: QLYSALANKCCHVGCTKRSLARFC
chain 2: ASWMEE[Phe(4-Ac)](PEG20K)IKLCGRELVRAQIAICGMSTWS
modifications: not fully specified (bridges); ends and bridges not checked
B10: RLX-A-AR18-20KPEG (ligand)
chain 1: QLYSALANKCCHVGCTKXSLARFC
chain 2: ASWMEEVIKLCGRELVRAQIAICGMSTWS
modifications: not fully specified; para-acetylphenylalanine (pAF) at position 18 of the A chain, 20K PEGylated
B11: RLX-A-BA18-20KPEG (ligand)
chain 1: QLYSALANKCCHVGCTKRSLARFC
chain 2: ASWMEEVIKLCGRELVR[Phe(4-Ac)](PEG20K)QIAICGMSTWS
modifications: not fully specified (bridges); ends and bridges not checked

How the values were obtained:
Test in all cases: cell-based or functional assay
[1] = target: T1, human RXFP1
[2] = target: T1, human RXFP1; remark: listed apart in the source
[3] = target: T1, human RXFP1; remark: listed apart in the source
[4] = target: T2, human RXFP3
[5] = target: T3, mouse RXFP1
[6] = target: human RXFP4 (human, UniProt Q8TDU9 1-374)
Chain of human RXFP4 (Q8TDU9 whole entry): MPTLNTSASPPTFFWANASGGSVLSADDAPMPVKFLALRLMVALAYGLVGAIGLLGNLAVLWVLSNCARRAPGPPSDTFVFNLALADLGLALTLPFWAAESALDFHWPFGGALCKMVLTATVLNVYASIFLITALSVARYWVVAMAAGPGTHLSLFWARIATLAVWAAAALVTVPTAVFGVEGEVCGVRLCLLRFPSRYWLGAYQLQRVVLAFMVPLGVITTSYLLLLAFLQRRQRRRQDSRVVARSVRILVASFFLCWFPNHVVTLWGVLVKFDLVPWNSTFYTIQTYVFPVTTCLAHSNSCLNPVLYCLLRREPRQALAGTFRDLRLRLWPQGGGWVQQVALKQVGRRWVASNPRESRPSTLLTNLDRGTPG

[7] = target: T4, rat RXFP1
[8] = target: dog RXFP1 (dog)
[9] = target: T5, cynomolgus monkey RXFP1

Binder	In vitro Activity Fold Loss [1] [fold]	Functional Assay Raw EC50 Values [ng/mL]; cAMP increase in THP-1 cells, 11/5/2010 [2]	Functional Assay Raw EC50 Values [ng/mL]; cAMP increase in THP-1 cells, 11/4/2010 [2] [ng/mL]	further results
B1	12	41 ng/mL	–	–
B2	–	3.3 ng/mL and 2.6 ng/mL	3.6	–
B3	17	56 ng/mL	–	–
B4	17	45 ng/mL	–	–
B5	–	1.5 ng/mL and 1 ng/mL	1.5	cAMP Assay EC50 (nM), THP-1 cells [3]: 0.3 nM; cAMP Assay EC50 (nM), hRXFP1/CHO-K1 cells [3]: 0.1 nM; cAMP Assay EC50 (nM), inhibition of forskolin-induced cAMP, human RXFP3/CHO-K1 cells [4]: > 3000 nM; cAMP Assay EC50 (nM), mouse RXFP1/CHO-K1 cells [5]: 0.1 nM; cAMP Assay EC50 (nM), inhibition of forskolin-induced cAMP, human RXFP4/CHO-K1 cells [6]: > 3000 nM; cAMP Assay EC50 (nM), rat RXFP1/CHO-K1 cells [7]: 0.03 nM; cAMP Assay EC50 (nM), dog RXFP1/CHO-K1 cells [8]: 0.56 nM; cAMP Assay EC50 (nM), cyno RXFP1/CHO-K1 cells [9]: 0.06 nM
B6	48	–	172	–
B7	22	58 ng/mL	–	–
B8	17	43 ng/mL	–	–
B9	15	–	54	–
B10	21	68 ng/mL	–	–
B11	48	–	172	–
